# Results taken from the nanobody polyreactivity screen of Harvey et al. (2022).
# Assay: yeast display, Sf9 membrane polyspecificity reagent, FACS + sequencing; frameworks hold sequencing errors
# Procedure, shortened: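 Galactose induction of a Saccharomyces cerevisiae BJ5465 synthetic nanobody display library ran 36–48 hours. The cells were then stained for 1 hour at 4 °C with 10% biotinylated, detergent-solubilized Sf9 membrane reagent, pulled down on streptavidin microbeads and FACS-sorted into low and high (top ~1%) gates on expression and reagent-binding fluorescence. Labels for polyreactivity follow the gate of origin.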
sequence,measurement,value
QVQLVESGGGLVQAGGSLRLTCAASGRIFSFNAMVSYRKATGKERELVATIRTDGTTNYADSVKGRFTISRDNAKNTVYLQMNSMKPEDTAVYYCATDSGWSTYDFWGQGTQVTVSS,polyreactivity (PSR sort gate),high polyreactivity
QVQLVESGGGLVQAGGSLRLTCAASGRIFSNDKGWYRQAPGKERELVAAITWSGGTTHYADSVKGRFTISRDNAKNTVYLQMNSLKPEDTAVYYCARAGGHAYSYWGQGTQVTVSS,polyreactivity (PSR sort gate),low polyreactivity
QVQLVESGGGLVQAGGSLRLTCAASGRIFSRYAMGWYRQAPGKERELVASITRGGSTYADSVKGRFTISRDNAKNTVYLQMNSLKPEDTAVYYCNATYFTRYRQYDYWGQGTQVTVSS,polyreactivity (PSR sort gate),low polyreactivity
QVQLVESGGGLVQAGGSLRLTCAASGRIFTRYSMGWYRKAPGKEREFVAAITNSGASTYYADSVKGRFTISRDNAKITVYLQMNSLKPEDTAVYYCAGDGPYWWDYDYWGQGTQETVSS,polyreactivity (PSR sort gate),high polyreactivity
QVQLVESGGGLVQAGGSLRLTCAASGRIFVKNAMGWYRQAPGKERELVATICSGGNTNYADSVKGRFTISRDNAKNTVYLQMNSLKPEDTAVYYCAAVWDLGDYELPYDYWGLGTQVTVSS,polyreactivity (PSR sort gate),low polyreactivity
QVQLVESGGGLVQAGGSLRLTCAASGRIIKLYAMGWYRQAPGKETEFVAAITWSGGRTYYADSVKGRFTISRDNAKNTVYLQMNSLTPEDTAVYSCAAYDTYDWYDYWGQGTQVTVSS,polyreactivity (PSR sort gate),high polyreactivity
QVQLVESGGGLVQAGGSLRLTCAASGRILGYYAMGWYRPAPGKERELVAAITYSGGSTYYADSVKGRFSISRDNAKNTVYLQMNILKPEDTAVYYCAADKLLLGLYGSTWNDYWGQGTQVTVSS,polyreactivity (PSR sort gate),low polyreactivity
QVQLVESGGGLVQAGGSLRLTCAASGRTFASNDMGWYRQAPGKEMELVADINNGARTYYADSVKGRFTISRDNAKNTVYLQMNSLKPEDTAVYYCAARRYGKQVRLYGYWGQGTQVTVSS,polyreactivity (PSR sort gate),high polyreactivity
QVQLVESGGGLVQAGGSLRLTCAASGRTFGPYAMGWYRPAPGKERELVAAIRYIDDSTFYADSVKGRFTISRDNAKNTVYLQMNSLKPEDTAVYYCAAQRRVVGRHGLSLIRYDYWGQGTQVTVSS,polyreactivity (PSR sort gate),low polyreactivity
QVQLVESGGGLVQAGGSLRLTCAASGRTFKSYTMGWYRQAPGKEREFVAAISSRGGNTYYADSVKGRFTISRDNAKNTVYLQMNSLKPEDTAVYYCAAESSYWSFPTYDYWGQGTQVTVSS,polyreactivity (PSR sort gate),high polyreactivity
QVQLVESGGGLVQAGGSLRLTCAASGRTFPLNVMGWYRQAPGKERELVAAITVSAGSTYYADSVKGRFTISRDNAKNTVYLQMNSLKPEDTAVYYCAKATSSFYHYRYDYWGQGTQVTVSS,polyreactivity (PSR sort gate),low polyreactivity
QVQLVESGGGLVQAGGSLRLTCAASGRTFQYYSMGWYRQAPGKERELVAAISQDGGSTYYADSVKGRFTISRDNAKNTVYLQMNSLKPEDTAVYYCAARVDEYAYYALDDYWGQGTQVTVSS,polyreactivity (PSR sort gate),low polyreactivity
QVQLVESGGGLVQAGGSLRLTCAASGRTFSTYVMGWYRQAPGKEREFVAAISTGGGSTYYADSVKGRFTISRDNAKNTVYLQMNSLKPEDTAVYYCAAKRKIRGYGPYEFWGQGTQVTVSS,polyreactivity (PSR sort gate),high polyreactivity
QVQLVESGGGLVQAGGSLRLTCAASGRTFVNYAMGWYRQAPGKERELVAAISTSGGSTYYADSVKGRFTISRDNAKNTVYLQMNSLKPEDTAVYYCNKVRYLPDNLRQVTFDYWGQGTQVTVSS,polyreactivity (PSR sort gate),low polyreactivity
QVQLVESGGGLVQAGGSLRLTCAASGRTFWYYAMGWYRQAPGKERELVAAISRNGGSTYYEDSVKGRFTISRDNAKNTVYLQMNSLKPEDTAVYYCAATLLRDYDYWGQGTQVTVSS,polyreactivity (PSR sort gate),high polyreactivity
QVQLVESGGGLVQAGGSLRLTCAASGRTFYYYAMGWYRQAPGKESELVAAINTRGVSTYYADSVKGRFTISRDNAKNTVYLQMNSLKPEDTAVYYCNKGFSYGRDYWGQGTQVTVSS,polyreactivity (PSR sort gate),high polyreactivity
QVQLVESGGGLVQAGGSLRLTCAASGRTLGGYTMGWSRQAPGKERELVAAITTGGSTNYADSVKGRFTISRDNAKNTVYLQMNSLKPEDTAVYYCATELVFDKRYWYDYWGQGTQVTVSS,polyreactivity (PSR sort gate),low polyreactivity
QVQLVESGGGLVQAGGSLRLTCAASGRTSNGYAMGWYRQAPGNERELVAAYADSVKGRFTISRDNAKNTVYLQMNSLKPEETAVYYCNADYDPVSRVGYVYWAYYYWGQGTQVTVSS,polyreactivity (PSR sort gate),low polyreactivity
QVQLVESGGGLVQAGGSLRLTCAASGSIFEVNAMGWYRQAPGKERELVAGISNADSTNYADSVKGRFTISRDNAKNTVYLQMNSLKPEDTAVYYCATDLDRDLPKDLLGPEYDYWGQGTQVTVSS,polyreactivity (PSR sort gate),low polyreactivity
QVQLVESGGGLVQAGGSLRLTCAASGSIFGWYVMGWYIPAPGKERELVAAISSVGSTYYADSVKGRFTISRDNAKNTVYLQMKSLKREDTAVYYCAKLRYPYLFWDDSEYWGQGTQVTVSS,polyreactivity (PSR sort gate),low polyreactivity
QVQLVESGGGLVQAGGSLRLTCAASGSIFLSYAMGWYRQPPGKDRELVAAISGGVNTYYADSVKGSFTISRDNAKNTVYLQMNSLKPEDTAVYYCYAVPHIYAEGTAYNYWGQGTQVTVSS,polyreactivity (PSR sort gate),low polyreactivity
QVQLVESGGGLVQAGGSLRLTCAASGSIFPFYAKGWYRQATGKERELVAAISDSGGDTYYADSVKGRFTISRDNAKNTVYLQMNSLKPEDTAVYYCAADCFYNSFNYWGQGTQVTVSS,polyreactivity (PSR sort gate),low polyreactivity
QVQLVESGGGLVQAGGSLRLTCAASGSIFTTNAKGWYRPAPGTERELVASITWSGGSTYADSVKGRFTISRDNAKYTVYLQMNILKPEDTAVYYGATDPFYPVPPEYEYWGQGTQVTVSS,polyreactivity (PSR sort gate),low polyreactivity
QVQLVESGGGLVQAGGSLRLTCAASGSIFWDNAMGWYRQAPGKERALFAAITSSGGSTHYADSVKGRFTISRDNAKNTVYLQMYSLKPEDTAVYYCAARRYYGVYYAFLYWGQGTQVTVSS,polyreactivity (PSR sort gate),high polyreactivity
QVQLVESGGGLVQAGGSLRLTCAASGSIFWGNAMGWYRQAPGKERELVATISWSAGSTYYADSVKGRFTISRDNAKNTVYLQMNSLKPEDTGVYYCATDFRHSTLYYYWGQRTQVTVSS,polyreactivity (PSR sort gate),low polyreactivity
QVQLVESGGGLVQAGGSLRLTCAASGSIFWPNAMGWYRPAPGKERELVAAISWGTGSTYYADSVKGRFTISRDNAKNTVYLQMNSLKPEDTAVYYCAADGAYLDPYYDYWGQGTQVTVSS,polyreactivity (PSR sort gate),low polyreactivity
QVQLVESGGGLVQAGGSLRLTCAASGSIFWRNTMGWYRQAPGKERELVAAIRNVGSTYYADSVKGRFTISRDNAKNTVYLQMNSLKPEDTAVYYCAVVYPARGSGNDSWGQGSQVTVSS,polyreactivity (PSR sort gate),high polyreactivity
QVQLVESGGGLVQAGGSLRLTCAASGSIFWWYGVGWYRQAPGKERELVADITSGGGTYYADSVKGRFTISRDNAKNTVYLQMNSLKPEDTAVYYCAADDRAYRFDYYFDYWGQGTQVTVSS,polyreactivity (PSR sort gate),low polyreactivity
QVQLVESGGGLVQAGGSLRLTCAASGSIFYYNAMGWYRQAPGKERELVAAISSDGSTYYADSVKGRFTISRDNAKNTVYLQMNSLKPEDTAVYYSAAATLTWSRWGSYYEYDYWGQGTQVTVSS,polyreactivity (PSR sort gate),low polyreactivity
QVQLVESGGGLVQAGGSLRLTCAASGSNFQYYAMGWYRQAPGKERELVAAISSGDTTNYADSVKGRFTISRDNAKNTVYLQMNSLKPEDTAVYYCNAEGGWYDWDDYWGQGTQVTVSS,polyreactivity (PSR sort gate),low polyreactivity
QVQLVESGGGLVQAGGSLRLTCAASGSNFWSYDMGWYRQAPGKERELVATITSGDSTYYADSVKGRFTISRDNAKNTVYLQMYSLKPEDTAVYYCAAGTYYRRPYWHRDYDYWGQGTQVTVSS,polyreactivity (PSR sort gate),low polyreactivity
QVQLVESGGGLVQAGGSLRLTCAASGSTFGSYAMGRYRQAPGKERELVAVAISWSGGNTYYADSVKGRFTNSRDNAKNTFYLQMNSLKPEDTAVYYFAAYGTTGVYRGPGYDYWGQGTQVTVSS,polyreactivity (PSR sort gate),low polyreactivity
